Source: US8697369B2, “Method for screening a test substance for activating a receptor associated with FGF 21 activity” (National Institute of Advanced Industrial Science and …, priority 2007, dated 2014)

What was measured:
Assay type in all cases: binding
[1] = target: T1, FGF receptor subtype R1c (FGFR-Fc) (Homo sapiens, UniProt P11362); experiment: Co-precipitation of soluble betaKlotho with FGFR-Fc (protein A beads), R1c
T1 construct: adding an immunoglobulin Fc domain to the extracellular domain of an FGF receptor; purchased R&D Systems
T1 sequence (P11362 22-376 limits assumed): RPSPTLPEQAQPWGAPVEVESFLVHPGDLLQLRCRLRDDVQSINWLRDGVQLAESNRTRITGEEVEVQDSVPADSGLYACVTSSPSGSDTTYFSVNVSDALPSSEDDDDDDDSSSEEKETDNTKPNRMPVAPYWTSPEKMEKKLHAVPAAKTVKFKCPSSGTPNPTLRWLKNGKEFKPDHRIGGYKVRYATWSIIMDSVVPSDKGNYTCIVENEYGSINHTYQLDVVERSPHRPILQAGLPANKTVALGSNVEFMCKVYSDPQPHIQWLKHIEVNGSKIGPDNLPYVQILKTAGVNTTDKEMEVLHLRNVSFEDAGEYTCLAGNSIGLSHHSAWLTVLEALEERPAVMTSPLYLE
Method: (§1) Moreover, the soluble betaKlotho protein and a fusion protein obtained by adding an immunoglobulin Fc domain to the extracellular domain of an FGF receptor (FGFR-Fc; manufactured by R&D Systems) were incubated, and FGFR-Fc was then precipitated using protein A beads. Whether or not betaKlotho bound to FGFR-Fc and was co-precipitated therewith was analyzed.

[2] = target: T2, FGF receptor subtype R2c (FGFR-Fc) (Homo sapiens, UniProt P21802); experiment: Co-precipitation of soluble betaKlotho with FGFR-Fc (protein A beads), R2c
T2 construct: adding an immunoglobulin Fc domain to the extracellular domain of an FGF receptor; purchased R&D Systems
T2 sequence (P21802 22-377 limits assumed): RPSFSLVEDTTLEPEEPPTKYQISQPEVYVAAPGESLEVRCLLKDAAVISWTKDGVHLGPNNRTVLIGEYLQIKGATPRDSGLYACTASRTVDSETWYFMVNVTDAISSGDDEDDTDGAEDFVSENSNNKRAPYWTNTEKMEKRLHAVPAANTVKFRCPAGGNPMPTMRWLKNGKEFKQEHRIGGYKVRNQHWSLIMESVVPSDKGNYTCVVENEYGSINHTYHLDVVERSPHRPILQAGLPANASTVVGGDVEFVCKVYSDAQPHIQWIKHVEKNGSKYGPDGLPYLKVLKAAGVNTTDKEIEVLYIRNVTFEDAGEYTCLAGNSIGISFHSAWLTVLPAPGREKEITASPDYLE
Method: as §1

[3] = target: T3, FGF receptor subtype R3c (FGFR-Fc) (Homo sapiens, UniProt P22607); experiment: Co-precipitation of soluble betaKlotho with FGFR-Fc (protein A beads), R3c
T3 construct: adding an immunoglobulin Fc domain to the extracellular domain of an FGF receptor; purchased R&D Systems
T3 sequence (P22607 23-375 limits assumed): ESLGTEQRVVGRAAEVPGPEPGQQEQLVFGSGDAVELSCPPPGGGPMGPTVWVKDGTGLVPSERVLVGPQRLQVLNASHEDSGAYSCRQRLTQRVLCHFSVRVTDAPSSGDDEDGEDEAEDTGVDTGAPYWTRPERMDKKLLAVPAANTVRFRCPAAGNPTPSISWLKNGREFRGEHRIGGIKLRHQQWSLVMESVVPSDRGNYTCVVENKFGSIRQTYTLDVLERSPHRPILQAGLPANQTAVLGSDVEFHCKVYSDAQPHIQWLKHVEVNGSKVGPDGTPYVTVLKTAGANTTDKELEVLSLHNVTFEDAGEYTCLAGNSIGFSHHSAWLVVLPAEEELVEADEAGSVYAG
Method: as §1

[4] = target: T4, FGF receptor subtype R4 (FGFR-Fc) (Homo sapiens, UniProt P22455); experiment: Co-precipitation of soluble betaKlotho with FGFR-Fc (protein A beads), R4
T4 construct: adding an immunoglobulin Fc domain to the extracellular domain of an FGF receptor; purchased R&D Systems
T4 sequence (P22455 22-369 limits assumed): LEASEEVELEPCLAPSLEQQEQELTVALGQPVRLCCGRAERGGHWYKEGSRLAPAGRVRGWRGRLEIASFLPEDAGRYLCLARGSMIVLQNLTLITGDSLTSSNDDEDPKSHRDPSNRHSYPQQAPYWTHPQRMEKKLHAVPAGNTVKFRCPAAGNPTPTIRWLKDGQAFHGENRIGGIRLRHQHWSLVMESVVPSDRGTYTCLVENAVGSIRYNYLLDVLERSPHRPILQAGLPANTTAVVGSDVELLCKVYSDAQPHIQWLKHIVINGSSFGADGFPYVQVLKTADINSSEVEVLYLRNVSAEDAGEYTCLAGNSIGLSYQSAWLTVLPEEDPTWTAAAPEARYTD
Method: as §1

- co-precipitation (binding) with FGFR-Fc [1]: binds to all of FGF receptor subtypes
- co-precipitation (binding) with FGFR-Fc [2]: binds to all of FGF receptor subtypes
- co-precipitation (binding) with FGFR-Fc [3]: binds to all of FGF receptor subtypes
- co-precipitation (binding) with FGFR-Fc [4]: binds to all of FGF receptor subtypes
Substance: betaKlotho: soluble protein: extracellular domain of betaKlotho with V5 tag and His tag at the C-terminus
